Results as given in patent publication US20240287172A1 (SCIRHOM, published 2024).
Numbering of substitutions follows the chain as printed.

Target: T1, hiR2-FL-S607R-T7 (human, UniProt Q6PJF5 1-856)
T1 sequence: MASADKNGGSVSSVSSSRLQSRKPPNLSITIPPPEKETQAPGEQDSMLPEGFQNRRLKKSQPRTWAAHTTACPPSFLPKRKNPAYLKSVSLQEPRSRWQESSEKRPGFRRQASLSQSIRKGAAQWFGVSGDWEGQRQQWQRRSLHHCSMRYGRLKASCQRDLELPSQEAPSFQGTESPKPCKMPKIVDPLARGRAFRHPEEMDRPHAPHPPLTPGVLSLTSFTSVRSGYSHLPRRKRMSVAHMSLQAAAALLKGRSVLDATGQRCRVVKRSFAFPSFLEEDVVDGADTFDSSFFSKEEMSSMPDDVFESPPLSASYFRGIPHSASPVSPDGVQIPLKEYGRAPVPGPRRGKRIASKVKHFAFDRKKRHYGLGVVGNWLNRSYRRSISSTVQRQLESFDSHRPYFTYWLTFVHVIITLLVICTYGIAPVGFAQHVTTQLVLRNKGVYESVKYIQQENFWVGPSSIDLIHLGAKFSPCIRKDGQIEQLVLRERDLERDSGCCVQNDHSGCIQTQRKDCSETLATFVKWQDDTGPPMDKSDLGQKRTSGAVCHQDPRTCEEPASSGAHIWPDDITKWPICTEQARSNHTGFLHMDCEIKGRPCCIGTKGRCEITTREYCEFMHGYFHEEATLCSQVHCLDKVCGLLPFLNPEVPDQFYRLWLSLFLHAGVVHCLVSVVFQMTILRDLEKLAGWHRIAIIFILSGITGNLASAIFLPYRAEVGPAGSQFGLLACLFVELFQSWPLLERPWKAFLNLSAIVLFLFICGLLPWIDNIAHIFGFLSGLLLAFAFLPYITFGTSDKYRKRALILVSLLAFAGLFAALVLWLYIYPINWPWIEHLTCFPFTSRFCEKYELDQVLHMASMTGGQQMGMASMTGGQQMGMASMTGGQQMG
Test: FACS, MEF-DKO cells, 3 µg/ml
Outline: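 MEF-DKO cells expressing T7-tagged full-length hiR2 point mutants were stained on ice for 1 h with purified antibodies at 3 μg/ml in FACS buffer. Detection used PE-conjugated goat anti-mouse IgG F(ab′)2 (1:100, 1 h on ice), read by flow cytometry; buffer-only wells served as controls.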

B1: antibody 48 (antibody, V domains shown)
VH: QVQLQQSGTELVRPGTSVKVSCKASGYAFTNYLIEWVKQRPGQGLEWIGVINPGSGFTKYNEKFKGKATLTADKSSSTVYMHLSSLTSEDSAVYFCARGLYRAMDYWGQGTSVTVSS
VL: DIQMTQSPASQSASLGESVTITCLASQTIATWLAWYQQKPGKSPQLLIYGATTLADGVPSRFSGGGSGTKFSFKISSLQAEDFVSYYCQQLYSTPYTFGGGTKLEIK
notes: mouse IgG, kappa light chain; also called clone #48; purified antibody 48
  loss of binding vs wild type: ≥ 30%

B2: antibody 50 (antibody, V domains shown)
VH: B1 VH with T9A, T16A, T30S, V79A, H82Q
VL: B1 VL with A30G, G50A, T52A, T53S, S85N, L91I
notes: mouse IgG, kappa light chain; also called clone #50; purified antibody 50
  loss of binding vs wild type: ≥ 30%
